The values below come from the DeepSol protein solubility set.

A short description of the data set: soluble on expression in E. coli; label from the status in PepcDB or PDB records.
“MRMTINRYNFQALWNRMCMILTSKGGELKFGEIIPDTKRSEMKIGKTLYIVNSRYNGKENIIDKFKRLITRKLESQSKGN”: the “soluble on expression in E. coli” value is “not soluble”.
On to “MSLRQDILLNNNWNFRFSHQVQGDTRRVDLPHTWNAQDALAGKIDYKRGIGNYEKALYIRPEWKGKRLFLRFDGVNSIADVFINRKHIGEHRGGYGAFIFEITDLVKYGEKNSVLVRANNGEQLDIMPLVGDFNFYGGIYRDVHLLITDETCISPLDYASPGVYLVQEVVSPQEAKVCAKVNLSNRAADGTAELQVLVTDGTKVICKESRNVSLKQGADILEQLPLLIQKPRLWNGCEDPFMYQVSISLHKDGKQIDSVTQPLGLRYYHTDPDKGFFLNGKHLPLHGVCRHQDRAEVGNALRPQHHEEDVALMREMGVNAIRLAHYPQATYMYDLMDKHGIVTWAEIPFVGPGGYADKGFVDQASFRENGKQQLIELIRQHYNHPSICFWGLFNELKEVGDNPVEYVKELNALAKQEDPTRPTTSASNQDGNLNFITENIAWNRYDGWYGSTPKTLATFLDRTHKKHPELRIGISEYGAGASIYHQQDSLKQPSASGWWHPENWQTYYHMENWKIIAERPFVWGTFVWNMFDFGAAHRTEGDRPGINDKGLVTFDRKVRKDAFYFYKANWNKQEPMIYLAEKRCRLRYQPEQTFMAFTTAPEAELFVNGVSCGKQKADTYSTVVWKNVKLTSGENIIRVTTPGKKPLTDEVTVEYKEDREGHHHHHH”, for which the “soluble on expression in E. coli” value is listed as “soluble”.
To “MGSDKIHHHHHHMNAPLNHPLPLLDLDVLRTFVAIAETGSFTTAANAVFRTPSAVSMQIKKLEDILGRSVFARDARSVSLTTDGEMLLGYARRLLSINREVVSKFIIPEIVGVVRLGSPDDYGERVLPHVLKRFAQSHPSIAVDVTIDQSSNLRRRMDDRALDITLLTNSYKTSALGAEVLLTEPIVWAGAKGGCAHLREPLPVSLWEEGCAWRAGALEALGREGRNYRVAYMSAHTAGQRAAIMADLAVAPLPRSFLGNDMVELCPKDGMPDIGTYNLAMVVAPDASAPVKAVADHIRATFEVFRETGKF” belongs “not soluble”; to “MSLNKKLYIGMVGILSLMMVGCNKSLAKVNDVEITKEQYKKTKAVLSATNNYINGQSLDELEKTLDKKGRNKLENVIISFMVDNELLYQEAKDKGLTPSKSEVDSKYQELEDKMNLNTSYKEKMDKAGVDKDYLKQEISRDLAIDKNKKAFEDRINISDNDMEAYYTSHKKDFNVEEVSASQILISTLDKNKKEVSKDKKEALKKKADNILTKIKNGESFESLAKKYSDDKATGKNGGQLGYFTKDDKNAEFTKEVFKLKKNEVSNVFETSYGYHIVKVTDKRERQKSFNECQSLIRESILNEKYIEHIKKLNEDAKIDREGHHHHHH”, “soluble”.
Regarding “MEHYMNTLAETMQRYVEKHDLHNLEGIKQTAIEGVWFYRSSKGNNRQPFVYQSGIIVLGQGHKNIHIGQTPVQYGPDDYLVVGVPMPLECEAFATNNEPLLGISIDISPTLLHKLVKKLEAQKFSNICEDSKRCGLKSVRMNDAMLDACKRLMKALCNDLDVAILGESLLEEIVYRTLVSKEGYVLFELAHQEGSYARVAKALNRVHAEYHEQLNVQTLAEEANMSVSAFHQAFRSVTLESPLQYIKKVRLNKARDLIQLEGKRVNDAARLVGYSSPSQFSREYKRHFNETPRSTKA”, the “soluble on expression in E. coli” value was “not soluble”.
“MVDNTSLSFEQIADFCGLHPLEVRGIADGEVARDIRGADPIGNGQLNREELDRAQANPDYRMKALVSRHAELLKPAKKAPRYTPVSRRQDRPDAIAWFLRHHPEVTDAQISKILGTTKATIEQVRARTHWNAANIKPVDPVTLGLVGQLELDALVKKAAEKKAKDDLKKGIVPEDPTLRPASEAGQFEPEVEEEEEDFRAPRGDLKAEDVFGKSTGYVDEEDEDLEHHHHHH”: the “soluble on expression in E. coli” value was “soluble”.
Consider “KESCKMFIGGLNWDTTEDNLREYFGKYGTVTDLKIMKDPATGRSRGFGFLSFEKPSSVDEVVKTQHILDGKVIDPKRAIPRDEQDKTGKIFVGGIGPDVRPKEFEEFFSQWGTIIDAQLMLDKDTGQSRGFGFVTYDSADAVDRVCQNKFIDFKDRKIEIKRAEPRH”, for which the “soluble on expression in E. coli” value is “soluble”.
Regarding “VTYEEEAVPAPVRGRLEVLSDLLYVASPDRAMVFTRTKAETEEIAQGLLRLGHPAQALHGDMSQGERERVMGAFRQGEVRVLVATDVAARGLDIPQVDLVVHYRMPDRAEAYQHRSGRTGRAGRGGRVVLLYGPRERRDVEALERAVGRRFKRVNPPTPEEVLEAKWRHLLARLARVPEKDYRLYQDFAGRLFAEGRVEVVAALLALLLGGAPAERSLLTGEEGWRTYKATGPRLSLPRLVALLKGQGLEVGKVAEAEGGFYVDLRPEARPEVAGLRLEPARRVEGLLEIPSRTRRPARA”, the “soluble on expression in E. coli” value is given as “soluble”.
Turning to “MKYIIIGLGNYGHVLAEELSALGHEIIGADISESRVDSIKDKVATAFVIDATDEQSLSVLPLNSVDIVVVAIGENFGASVRVVALLKQKKVPRIFARAIDAVHKAVLEAFSLEKILTPEEDAARSLVQLLDFGATMEAFRIDQDYYVVKFTVPKKFVGYFVNELNMDEEFHLKLIALKRANKVTNCLGISLMERHVKNELPGDEKVEEGDELVCYGKYRDFQSFWKAILEHHHHHH”, the “soluble on expression in E. coli” value was “soluble”.
Turning to “FDKTVLQIFANYCVAAAESMAHTLMRTAHSAFVKETEDFSCTIMTPRGQTFASPKTLGATWYPGLDFSGAIDMIDGYEPGDICMTNDAYSGYVATHTPDIMMWKPVYYQGEMVCFVGGHIHNTDMGGAVPASLSRTLTEVHQEGIRFPPTKIVRRGVLNEELMRLMELNVRSPDQNRGDLQAQTAMLMTGERRIVEIIERFGLQAFKEGMAAMLDYSEQQARAIVRAMPDGEYFFAEYANEDSLNGKPLRVAITLRIRGDELEFDFTGSDPQLTSSLNMPTGGKERHVLALVGLNYVLYSLNPEILLNAGMLRVARCILPEGSVVNPLAPAAVGMRSLTCKVVQYATMGVFSQVVPDRLPASPAGGMSIVNVKTTDRDGKTIIAAIEPVGGGAGGDPYSDGADASGAIVAFLRNTPVEINETEVPIRITRYGMVPDSGGPGRYRGGLGTCMEFQVYTPNSAVTARNRDRSRFASWGVLGGKAGTVSRFLRNPGTAHEEDLGVHDFIHCQPGDVIRLEGCGGGGYGSPWERDPARVLHDVRCGYV”, the “soluble on expression in E. coli” value is on record as “not soluble”.
As to “MSLEITNPILTGFNPDPSLCRQGEDYYIATSTFEWFPGVRIYHSRDLKNWSLVSTPLDRVSMLDMKGNPDSGGIWAPCLSYADGKFWLLYTDVKIVDSPWKNGRNFLVTAPSIEGPWSEPIPMGNGGFDPSLFHDDDGRKYYIYRPWGPRHHSNPHNTIVLQAFDPQTGTLSPERKTLFTGTPLCYTEGAHLYRHAGWYYLMAAEGGTSYEHAVVVLRSKNIDGPYELHPDVTMMTSWHLPENPLQKSGHGSLLQTHTGEWYMAYLTSRPLRLPGVPLLASGGRGYCPLGRETGIARIEWRDGWPYVEGGKHAQLTVKGPQVAEQPAAVPGNWRDDFDASSLDPELQTLRIPFDDTLGSLTARPGFLRLYGNDSLNSTFTQSTVARRWQHFAFRAETRMEFSPVHFQQSAGLTCYYNSKNWSYCFVDYEEGQGRTIKVIQLDHNVPSWPLHEQPIPVPEHAESVWLRVDVDTLVYRYSYSFDGETWHTVPVTYEAWKLSDDYIGGRGFFTGAFVGLHCEDISGDGCYADFDYFTYEPVEGHHHHHH”, the “soluble on expression in E. coli” value is recorded as “not soluble”.
With “MSLSELHALLTFPERPISQSYYVPKLQHFLKSGIPATYTLEQVAAFEHEEKNRNGDKEFRESTDDNKTSNTTPLHVLARSLPLDIKDEELQVVMDMMNILFEYGAGWNFIDYEDKTVGDLFLERNQSRESPLYRRLVEAGVSAELLLRKLNGGDVEFLDTDELIGIEPEESVQTAVDGQKEESVGSDDDATAANQQVYLKTELEYKDDALITKENKDGVMMDWETKIMELASETLFPDPEATNSATILNIGFGMGIIDTFIQARKPYRHYICEAHPDVLAKMKMDGWYEKDNVVILEGRWQDTLNNLLDKGEVFFDGIYYDTFSEHYQDILDLYDVVVGLIKPEGVFSFFNGLGADRSLCYDVYKEIVEIDVATYGMKCDYTRYSLDEQLPDWNDVKRSYFNCNYYYHPRITFAEGHHHHHH”, the “soluble on expression in E. coli” value is on record as “not soluble”.
Take “MEPKRIREGYLVKKGSVFNTWKPMWVVLLEDGIEFYKKKSDNSPKGMIPLKGSTLTSPCQDFGKRMFVLKITTTKQQDHFFQAAFLEERDAWVRDIKKAIKCIEGGQKFARKSTRRSIRLPETIDLGALYLSMKDPEKGIKELNLEKDKKVFNHCLTGSGVIDWLVSNKLVRNRQEGLMISASLLSEGYLQPAGDLSKNAADGIAENPFLDSPDAFYYFPDSGFFCEENSSDDDVILREEFRGVIIKQGCLLKQGTGENWKVRKFILREDPAYLHYYDPAGGEDPLGAVHLRGCVVTSVESSHDVKKSDEENLFEIITADEVHYYLQAATSKGRTEWIKAIQVASRTGK”: the “soluble on expression in E. coli” value was “soluble”.
For “MGSDKIHHHHHHACSQKQPIQATVTPSDPVVGEEIFFSDSTSGARIWYWEFGNNETSTQRSGYHRFKQKGVYKIRLTVNGNLERYFDVRVKEKTNAEDLHLVHIIAPKEAIQGENIIFRGEGHDEQWRWEFGETGMIDSREKTALYAYTEPGEYEVLLNTENTRYPIRHRINILPYYSENDSTDVMVLIGLDIKEKLQNIADGKPFNVNYNYVVDKYFNNNPNTLVIVNNNKYNDFYSYCQGLHHIGRKETIIQNVIVETEDEESGYITQITVMQIEKKK”, the “soluble on expression in E. coli” value is “not soluble”.
To “MMINQKNDIPLCAQEFSKLTDPLYIKKICLEKVHDWSRCNEDDVCVNQILSGLTNQLFEVSIKEDTAIEYRITRRHVLFRIYGKDVDALYNPLSEFEVYKTMSKYRIAPLLLNTFDGGRIEEWLYGDPLSIDDLKNKSILVGIANVLGKFHTLSRKRHLPEHWDKTPCVFKMMDRWRLAVSNYKNLDKVTLDINKYIQESHKFLKFIKIYTQIENIANDIVFCHNDLQENNIMNTNKCLRLIDFEYSGYNFLSADIANFFIETTIDYSYNAYPFFIINKKNYISYESRILFVTTYLSKYLDDSTAASDQDIIDQFLEAIEVQALGLHLIWAFWSIIRGYQTKSYNEFDFFLYAKERLKMYDEQKQYLMSKNIIKD” belongs “not soluble”; to “MSRFDSGLPSVRQVQLLIKDQTPVEIKLLTGDSLFGTIRWQDTDGLGLVDDSERSTIVRLAAIAYITPRR”, “soluble”.
As to “KVWDRAVDFLAANESRVRTETRRIGGADFLVWRWIQPSASCDKILVIPSKVWQGQAFHLDRRNSPPNSLTPCLKIRNMFDPVMEIGDQWHLAIQEAILEKCSDNDGIVHIAVDKNSREGCVYVKCLSPEYAGKAFKALHGSWFDGKLVTVKYLRLDRYHHRFPQALTSNTPLKPSNKHMNSMSHLRLRTGLTNSQGSS”, the “soluble on expression in E. coli” value is on record as “soluble”.
Take “MSLNGATQGLLGWSSRGEIAAEIADAKQSQSVYVDKIANSSLAEIQADPTLMQFALSGGAAAFKVNCIQCHGSGAEGGQGYPNLNDDDWMWGGSVDDIYTTVKHGIRFADDADTRASEMPAFGDILKSDEIRAVAAYVVSLTGTPSNPALVEPGKQLFADNCASCHGEDAKGNREFGAPNLADAIWLKAHGEEGIVAQIRSPKHGVMPAWGERLGDTTVKQLAIFVHSLGGGEGHHHHHH”: the “soluble on expression in E. coli” value is listed as “not soluble”.
With “RLIVGKHHWKIEKQPEWYVKAVRKTIAALPSGYAEAADWLDVTENALFNRLRADGDQIFPLGWAMVLQRAGGTHFIADAVAQSANGVFVSLPDVEDVDNADINQRLLEVIEQIGSYSKQIRSAIEDGVVEPHEKTAINDELYLSISKLQEHAALVYKIFCISESNDARECAAPGVVASIASGCGETNA” the entry was “soluble”; with “VRILATVAATAAAVAALITPAHADGPLGVKGDTLTLPLADAITALPVAEESRAGYQRSAFKHWVDADKDGCNTRSEVLKAEAVVAPEQGTRCKLSGGQWYSAYSNTYVNSASALDLDHLVPLAEGWDSGASAWTAKEREAYANDLGDDRSLIAVTAATNRSKADQDPAEWLPPYEPYHCQYLTDWIATKLRWQLTVDQAERDTLTQATTSCPNLPVEVTLAR”, “soluble”.
